Experimental data as given in patent publication US20200173960A1.

Columns and labels:
trastuzumab [1] = test: ELISA Kit A (anti-idiotype capture) of trastuzumab 50 ug/mL pre-bound with ADA; trastuzumab:ADA 5:1
trastuzumab [2] = test: ELISA Kit A (anti-idiotype capture) of trastuzumab 50 ug/mL pre-bound with ADA; trastuzumab:ADA 1:1
trastuzumab [3] = test: ELISA Kit A (anti-idiotype capture) of trastuzumab 50 ug/mL pre-bound with ADA; trastuzumab:ADA 10:1
trastuzumab [4] = test: ELISA Kit B (HER2 capture, anti-human IgG Fc detection) of trastuzumab 0.5 ug/mL pre-bound with ADA; trastuzumab:ADA 1:1
trastuzumab [5] = test: ELISA Kit B (HER2 capture, anti-human IgG Fc detection) of trastuzumab 0.5 ug/mL pre-bound with ADA; trastuzumab:ADA 1:10
trastuzumab [6] = test: cell-based or functional assay
trastuzumab [7] = test: ELISA Kit A (anti-idiotype capture) of trastuzumab 0.5 ug/mL pre-bound with ADA; trastuzumab:ADA 1:1
trastuzumab [8] = test: ELISA Kit A (anti-idiotype capture) of trastuzumab 0.5 ug/mL pre-bound with ADA; trastuzumab:ADA 1:2
trastuzumab [9] = test: method not stated; affinity listed for the purchased ADA
trastuzumab [10] = test: ELISA Kit A (anti-idiotype capture) of trastuzumab 0.5 ug/mL pre-bound with ADA; trastuzumab:ADA 1:5
trastuzumab [11] = test: ELISA Kit A (anti-idiotype capture) of trastuzumab 50 ug/mL pre-bound with ADA; trastuzumab:ADA 100:1
trastuzumab [12] = test: ELISA Kit A (anti-idiotype capture) of trastuzumab 0.5 ug/mL pre-bound with ADA; trastuzumab:ADA 1:100
trastuzumab [13] = test: ELISA Kit A (anti-idiotype capture) of trastuzumab 0.5 ug/mL pre-bound with ADA; trastuzumab:ADA 1:50
trastuzumab [14] = test: ELISA Kit A (anti-idiotype capture) of trastuzumab 0.5 ug/mL pre-bound with ADA; trastuzumab:ADA 1:10
trastuzumab [15] = test: ELISA Kit A (anti-idiotype capture) of trastuzumab 0.5 ug/mL pre-bound with ADA; trastuzumab:ADA 10:1
trastuzumab [16] = test: ELISA Kit A (anti-idiotype capture) of trastuzumab 0.5 ug/mL pre-bound with ADA; trastuzumab:ADA 5:1
trastuzumab [17] = test: ELISA Kit B (HER2 capture, anti-human IgG Fc detection) of trastuzumab 0.5 ug/mL pre-bound with ADA; trastuzumab:ADA 10:1
trastuzumab [18] = test: ELISA Kit B (HER2 capture, anti-human IgG Fc detection) of trastuzumab 0.5 ug/mL pre-bound with ADA; trastuzumab:ADA 1:100

| Substance | Accuracy (%) ELISA (trastuzumab [1]) | Accuracy (%) ELISA (trastuzumab [2]) | Accuracy (%) ELISA (trastuzumab [3]) | Accuracy (%) Kit B (trastuzumab [4]) | Accuracy (%) Kit B (trastuzumab [5]) | Accuracy (%) nSMOL; trastuzumab 0.5 ug/mL; trastuzumab:ADA 1:1 (trastuzumab [6]) | Accuracy (%) nSMOL; trastuzumab 0.5 ug/mL; trastuzumab:ADA 1:2 (trastuzumab [6]) | Accuracy (%) nSMOL; trastuzumab 0.5 ug/mL; trastuzumab:ADA 1:5 (trastuzumab [6]) | Accuracy (%) nSMOL; trastuzumab 0.5 ug/mL; trastuzumab:ADA 1:10 (trastuzumab [6]) | Accuracy (%) nSMOL; trastuzumab 0.5 ug/mL; trastuzumab:ADA 1:50 (trastuzumab [6]) | Accuracy (%) nSMOL; trastuzumab 0.5 ug/mL; trastuzumab:ADA 1:100 (trastuzumab [6]) | Accuracy (%) nSMOL; trastuzumab 0.5 ug/mL; trastuzumab:ADA 5:1 (trastuzumab [6]) | Accuracy (%) nSMOL; trastuzumab 0.5 ug/mL; trastuzumab:ADA 10:1 (trastuzumab [6]) | Accuracy (%) nSMOL; trastuzumab 50 ug/mL; trastuzumab:ADA 1:1 (trastuzumab [6]) | Accuracy (%) nSMOL; trastuzumab 50 ug/mL; trastuzumab:ADA 5:1 (trastuzumab [6]) | Accuracy (%) nSMOL; trastuzumab 50 ug/mL; trastuzumab:ADA 10:1 (trastuzumab [6]) | Accuracy (%) nSMOL; trastuzumab 50 ug/mL; trastuzumab:ADA 100:1 (trastuzumab [6]) | Accuracy (%) nSMOL; trastuzumab first immobilized on Protein A; trastuzumab:ADA 1:1 (trastuzumab [6]) | Accuracy (%) nSMOL; trastuzumab first immobilized on Protein A; trastuzumab:ADA 5:1 (trastuzumab [6]) | Accuracy (%) nSMOL; trastuzumab first immobilized on Protein A; trastuzumab:ADA 10:1 (trastuzumab [6]) | other results |
| --- | --- | --- | --- | --- | --- | --- | --- | --- | --- | --- | --- | --- | --- | --- | --- | --- | --- | --- | --- | --- | --- |
| HCA177 (antibody) | 92% | 84.5% | 85.3% | 46% | 0.962% | 96.1% | 84.4% | 78.7% | 81% | 89.5% | 74.1% | 98.7% | 98.4% | 88% | 99.4% | 103% | 96.2% | 89.2% | 97.3% | 103% | Accuracy (%) nSMOL; trastuzumab first immobilized on Protein A; trastuzumab:ADA 100:1 (trastuzumab [6]): 94.7%; inhibitory effect on quantification values (nSMOL), ratio 1:1 (trastuzumab [6]): 10%; Accuracy (%) ELISA (trastuzumab [7]): 110%; Accuracy (%) ELISA (trastuzumab [8]): 99.9%; Kd (trastuzumab [9]): 0.02 nM; Accuracy (%) ELISA (trastuzumab [10]): 99.4%; Accuracy (%) ELISA (trastuzumab [11]): 98%; Accuracy (%) ELISA (trastuzumab [12]): 106%; Accuracy (%) ELISA (trastuzumab [13]): 112%; Accuracy (%) ELISA (trastuzumab [14]): 108%; Accuracy (%) ELISA (trastuzumab [15]): 103%; Accuracy (%) ELISA (trastuzumab [16]): 112%; Accuracy (%) Kit B (trastuzumab [17]): 97.4% |
| HCA176 (antibody) | 72.1% | 57.3% | 69.6% | 36.1% | 3.93% | 99.9% | 93.4% | 101% | 89.1% | 86.6% | 88.7% | 93.3% | 106% | 94.8% | 96.7% | 104% | 94.7% | 102% | 98.3% | 102% | Accuracy (%) nSMOL; trastuzumab first immobilized on Protein A; trastuzumab:ADA 100:1 (trastuzumab [6]): 93.5%; Accuracy (%) ELISA (trastuzumab [7]): 78.7%; Accuracy (%) ELISA (trastuzumab [8]): 75.2%; Kd (trastuzumab [9]): 0.4 nM; Accuracy (%) Kit B (trastuzumab [18]): 11.7%; Accuracy (%) ELISA (trastuzumab [10]): 75.4%; Accuracy (%) ELISA (trastuzumab [11]): 84.6%; Accuracy (%) ELISA (trastuzumab [12]): 82.6%; Accuracy (%) ELISA (trastuzumab [13]): 73.1%; Accuracy (%) ELISA (trastuzumab [14]): 76.6%; Accuracy (%) ELISA (trastuzumab [15]): 116%; Accuracy (%) ELISA (trastuzumab [16]): 98%; Accuracy (%) Kit B (trastuzumab [17]): 101% |
| HCA168 (Fab) | 66.8% | 81.4% | 84.4% | 42.4% | 6.4% | 106% | 102% | 93% | 107% | 86% | 84.8% | 113% | 109% | 92.9% | 92.8% | 102% | 89.5% | 94.5% | 94.3% | 101% | Accuracy (%) nSMOL; trastuzumab first immobilized on Protein A; trastuzumab:ADA 100:1 (trastuzumab [6]): 107%; Accuracy (%) ELISA (trastuzumab [7]): 84.1%; Accuracy (%) ELISA (trastuzumab [8]): 82.1%; Kd (trastuzumab [9]): 0.02 nM; Accuracy (%) Kit B (trastuzumab [18]): 3.32%; Accuracy (%) ELISA (trastuzumab [10]): 67.7%; Accuracy (%) ELISA (trastuzumab [11]): 84.9%; Accuracy (%) ELISA (trastuzumab [12]): 72.2%; Accuracy (%) ELISA (trastuzumab [13]): 64.5%; Accuracy (%) ELISA (trastuzumab [14]): 62.2%; Accuracy (%) ELISA (trastuzumab [15]): 95.2%; Accuracy (%) ELISA (trastuzumab [16]): 102%; Accuracy (%) Kit B (trastuzumab [17]): 95.5% |
| MAB11130 (antibody) | 72.8% | 2.75% | 74.2% | 3.69% | 1.36% | 102% | 97.8% | 108% | 109% | 115% | 100% | 103% | 105% | 102% | 105% | 110% | 102% | 96.2% | 108% | 105% | Accuracy (%) nSMOL; trastuzumab first immobilized on Protein A; trastuzumab:ADA 100:1 (trastuzumab [6]): 109%; Accuracy (%) ELISA (trastuzumab [7]): 0.632%; Accuracy (%) Kit B (trastuzumab [18]): 4.49%; Accuracy (%) ELISA (trastuzumab [11]): 83.5%; Accuracy (%) ELISA (trastuzumab [15]): 102%; Accuracy (%) ELISA (trastuzumab [16]): 96.9%; Accuracy (%) Kit B (trastuzumab [17]): 88.9% |
